Residue numbers refer to the chain shown, from its start. Names and notes keep the numbering of the source.

The text below walks through data of patent US20080233097A1, “Phosphorylation Site Of Mitogen-Activated Protein Kinases, Modified Proteins And Applications” (UNIVERSIDAD AUTONOMA DE MADRID, priority 2005, published 2008).

In series [1] the test system is β2-adrenergic (β2-AR) receptor. Nature of the series: isoproterenol stimulation of HEK 293 cells with β2-AR, Flag-p38α and GRK2 (co-immunoprecipitation, anti-phospho-p38). The format is cell-based, human.
Protocol: 48 hours after the transfection and after a 2 hour serum starvation, the cells were stimulated with the adrenergic agonist isoproterenol (ISO, 10 μM) for 5 or 10 minutes or they were not stimulated (0 min ISO). Likewise, cells without overexpressed β2-AR receptor were stimulated with 0.5 M NaCl for 15 minutes. The cells were solubilized in a buffer suitable for immunoprecipitation with the M2 anti-Flag antibody bound to agarose and after taking aliquots of these lysates (10%) for overexpression control (lysate panels) the immune complexes were incubated overnight at 4° C. The immunoprecipitated proteins (Ip anti-Flag) were resuspended in an electrophoresis breaking buffer and the bound proteins were resolved in a 10% SDS-polyacrylamide gel. […] The negative immunoprecipitation controls (Cneg) in the absence of Flag-p38α and of stimulation with 10 μM isoproterenol are also included in the figure. […] As described in A, non-specific immunoprecipitation controls (Cneg) of the M2 anti-Flag-agarose antibody were carried out.
In the GRK2 and Flag-p38α association experiments, a 1:1:1 ratio of GRK2 (or GRK2-K220R), Flag-p38α, and β2-adrenergic receptor was used (generally 1 μg of each per p60).
The stimulation of HEK293 cells with 10 μM isoproterenol (Sigma) was carried out at 37° C. in culture medium without serum. […]
The test system of series [2] is 3T3-L1 cells. Nature of the series: adipocyte differentiation of 3T3-L1 (Oil Red staining, adipocyte count). It counts as cell-based. The following applies: 3T3L1 lines stably transfected, day 15. The text has this:
3T3L1 lines stably transfected with pCDNA3-GRK2 and pCDNA3-GRK2K220R were made. GRK2 (anti-GRK2) expression controls obtained in cell lines, compared to 3T3L1 levels, are included. The cells were subjected to a standard differentiation treatment and on day 15 of the latter, the cells were fixed with formalin and stained with Oil Red, a lipophilic coloring which binds to the fats accumulated by the adipocytes. The cells with adipocytic phenotype (in red) were counted under microscope in a total of 25 fields. Representative photographs of two independent experiments are shown in duplicate. A photo of the 3T3L1 cells, free of stimulation with insulin during the differentiation process (control), is also included. The graph reflects the adipocyte count (±SEM) in these experiments.
The cell culture was carried out with 10% DMEM medium of NCS serum. However, the entire differentiation process which is described below must be performed in depleted AXC serum (ion exchange resin) by means of successive adsorptions of fetal calf serum on an anion exchange resin and on active carbon. AXC serum was provided by the kitchen service of the Instituto of Investigaciones Biomédicas (Biomedical Research Institute). The cells are grown until their confluence and are plated (5×10^5 in P-100) in DMEM-10% AXC medium, supplemented with 4 μM of biotin (Sigma). The following day, the medium is replaced with fresh medium. The cells are grown another three days, until confluence is reached again, that day is called day “0”. On day 0 of differentiation, the cells are cultured in a medium containing: 0.5 μM dexamethasone (Sigma), 0.5 mM 3-isobutyl-1-methylxanthine (IMBX, of Sigma) and 1 μM insulin (Sigma) and in which they will remain for another three days. […] From day 6 to day 15, the adipogenesis was analyzed by staining with Oil Red, a red coloring of lipophilic constitution which binds to the drops of fat accumulated by the adipocytes in their cytoplasm. […] The cells are counted in a total of 25 fields per each experimental plate.

Series [3] concerns the target T1, GRK2 (Bos taurus, UniProt P21146).
T1 construct: made in house; host or cells: Sf9 cells (baculovirus)
T1 sequence (P21146 1-689): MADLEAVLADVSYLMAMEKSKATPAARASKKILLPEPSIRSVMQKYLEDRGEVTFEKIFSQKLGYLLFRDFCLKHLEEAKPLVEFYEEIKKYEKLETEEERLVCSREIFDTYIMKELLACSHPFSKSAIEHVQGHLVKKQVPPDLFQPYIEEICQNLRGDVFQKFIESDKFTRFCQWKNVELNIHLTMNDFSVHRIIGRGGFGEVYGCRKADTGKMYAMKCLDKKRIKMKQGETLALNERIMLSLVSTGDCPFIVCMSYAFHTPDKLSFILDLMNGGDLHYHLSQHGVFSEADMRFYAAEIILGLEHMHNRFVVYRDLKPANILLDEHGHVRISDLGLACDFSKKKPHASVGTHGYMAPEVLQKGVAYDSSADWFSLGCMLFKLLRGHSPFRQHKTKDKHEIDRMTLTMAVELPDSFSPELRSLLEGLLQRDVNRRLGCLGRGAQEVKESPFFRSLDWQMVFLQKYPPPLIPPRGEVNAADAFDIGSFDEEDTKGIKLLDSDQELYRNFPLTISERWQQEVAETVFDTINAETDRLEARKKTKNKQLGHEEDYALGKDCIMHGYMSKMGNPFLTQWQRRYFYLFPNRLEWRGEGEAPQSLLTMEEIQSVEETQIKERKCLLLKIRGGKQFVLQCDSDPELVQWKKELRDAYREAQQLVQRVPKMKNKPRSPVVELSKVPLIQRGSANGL
Nature of the series: phosphorylation of p38 mutants and truncated proteins by GRK2 in vitro. It counts as biochemical. The following applies: GST fusion proteins, 30 minutes at 30° C. The procedure: FIG. 6A: Proteins fused to GST (black rectangle in the protein schemes) were purified from bacteria transformed with the plasmids pGEX2T-p38α, pGEX4T-Mxi2 and pGEX4T-Mxi2Δ17: p38α, Mxi2 and Mxi2Δ17. The […] isoforms used as C-terminal truncated mutants for trying to limit the GRK2 phosphorylation site. […] Heparin (150 nM) was included as a specific GRK2 inhibitor. The reactions were stopped by adding SDS breaking buffer. The samples were resolved in 8% SDS-PAGE. For the purpose of assuring the inclusion of identical amounts of protein, they were first visualized in the gel by Coomassie Brilliant Blue (CBB) staining. Then the gel was dried and the radioactivity incorporated to the proteins (^32P) was detected. FIG. 6B: The truncated GST-280-360p38 protein, corresponding to the last 80 p38α amino acids, was generated by means of the Invitrogen Gateway system. Phosphorylation assays were carried out with Mxi2Δ17 as a p38 N-terminal, 280-360 p38 as C-terminal and with whole p38α in the same conditions as described in section A. The phosphorylation was detected by autoradiography (^32P) and controls of the amount of protein used in the assays were carried out concomitantly by Western blot with the anti-GST antibody. The presence of the GST-280-360p38 protein, which is not phosphorylated, is clearly observed. STD, mobility of standard molecular weight proteins.
FIG. 9A: p38T123A and p38T123D proteins, fused to GST, were made by directed mutagenesis in the prokaryotic expression plasmids pGEX2T. The ability of the recombinant GST-p38T123A and GST-p38T123D proteins to be GRK2 substrates in comparison to the wild GST-p38WT protein and at the final concentrations indicated in the Figure was assayed. The upper panels represent the obtained phosphorylation (32 P) and the lower panels show, by anti-p38N WB, the amount of recombinant protein used in the assays. […]
Heparin (150 nM) was included as a specific GRK2 inhibitor. […] Subsequently, the gel was dried and the radioactivity incorporated to the proteins (^32P) was detected. […]

Series [4] has as its target GST-p38T123D.

For `CC(C)NCC(O)c1ccc(O)c(O)c1` (centres unmarked) [isoproterenol], in series [1] (10 μM), the “p38 activation (anti-phospho-p38)” value was “not very strong”. Moreover, the “association between GRK2 and p38 (co-immunoprecipitation)” value in series [1] (10 μM, 0, 5 or 10 minutes) is listed as “maximum association is obtained five minutes after exposure”.

B1: K220R: catalytically inactive GRK2-K220R mutant (protein)
chain: T1 sequence (P21146 1-689) with K220R
With B1, the “acquisition of the adipocytic morphology mediated by insulin” value in series [2] is given as “stimulates it”.

B2: GST-280-360 p38α: truncated protein corresponding to the last 80 amino acids of p38α, fused to GST (protein)
chain: AVDLLEKMLVLDSDKRITAAQALAHAYFAQYHDPDDEPVADPYDQSFESRDLLIDEWKSLTYDEVISFVPPPLDQEEMES
modifications: left off: a dimerising Fc or GST
notes: truncated protein corresponding to the last 80 amino acids of p38α, fused to GST
For B2, in series [3], the “ability to be a GRK2 substrate (32P incorporation)” value is recorded as “no trace whatsoever of phosphorylation”.

B3: purified MKK6 (recombinant MKK6CAM, Upstate Biotech) (protein)
chain: MSQSKGKKRNPGLKIPKEAFEQPQTSSTPPRDLDSKACISIGNQNFEVKADDLEPIMELGRGAYGVVEKMRHVPSGQIMAVKRIRATVNSQEQKRLLMDLDISMRTVDCPFTVTFYGALFREGDVWICMELMDTSLDKFYKQVIDKGQTIPEDILGKIAVSIVKALEHLHSKLSVIHRDVKPSNVLINALGQVKMCDFGISGYLVDEVAKEIDAGCKPYMAPERINPELNQKGYSVKSDIWSLGITMIELAILRFPYDSWGTPFQQLKQVVEEPSPQLPADKFSAEFVDFTSQCLKKNSKERPTYPELMQHPFFTLHESKGTDVASFVKLILGD
Turning to B3, the “phosphorylation by MKK6CAM (32P incorporation)” value in series [4] is recorded as “GST-p38T123D is a much worse MKK6CAM substrate than the other two p38”.
